Experimental data: paper PMC4838890, “Dynamic and flexible H3K9me3 bridging via HP1β dimerization establishes a plastic state of condensed chromatin” (Nature Communications, 2016)

Assays:
[1] = biological target: T1, H3K9me3 peptide (Homo sapiens, UniProt P68431); assay: SPR, immobilized H3K9me3 peptide; assay type: binding; details: 0.1 µM hHP1β WT bound, 950 RU; 1 or 20 μM free H3K9me3, 20 μM H3K9me0 peptide
T1 construct: C-terminally biotinylated histone H3 peptides (aa 1–20)
Experimental: SPR measurements were performed on a Biacore 2000 instrument (GE Healthcare, Buckinghamshire, UK) at 298 K in 10 mM triethanolamine (pH 7.5), 150 mM NaCl, 0.1 mM EDTA, 1 mM DTT, 0.005% (v/v) Tween-20. Biotinylated ligands were immobilized on streptavidin-coated sensor chips SA (GE Healthcare, Buckinghamshire, UK). Before immobilization, sensor chips were conditioned as described by the manufacturer. To obtain low surface densities (5–24 RU), 5 nM biotinylated H3 peptide was injected at a low rate of 10 μl min^−1 using varying contact times. High surface densities (>700 RU) were prepared by injecting […] peptide (10 μl min^−1) until the SA surface was saturated. Peptide-containing chips were regenerated by applying three short pulses of 0.05% (w/v) SDS followed by an injection of 1.5 M NaCl for baseline stabilization. For binding assays, hHP1β proteins were injected at […] (serial twofold dilutions) for 2 min (30 μl/min). Dissociation was recorded for up to 5 min. A streptavidin surface without ligands served as reference. In addition, blank runs were performed for double referencing. Data evaluation was performed by steady-state analysis assuming a Langmuir 1:1 binding model using BIAevaluation 4.1 and Prism 5.04 (GraphPad, CA, USA) software. Binding to the unmodified peptides was analysed with maximum binding (RUmax) set to the corresponding values obtained with the modified peptides.
Figure S8 Hiragami-Hamada et al.
20 30 one site-specific 20 30 one site-specific […]
time [s] concentration [ μM] time [s] concentration [ μM]
40 two site-specific 40 one site-specific […]
time [s] concentration [ μM]
Supplementary Figure 8: hHP1β binds nucleosomes as dimer.
(a) Dynamic light scattering (DLS) analysis of recombinant hHP1β WT (blue) and I161A (red).
(b) SPR response traces of injection of hHP1β WT into Biacore cells containing biotinylated H3K9me3-peptide immobilized on a sensory chip via covalently coated streptavidin. Immobilized peptide was at 24
RU. Injection series are from 0.024 to 50 µM protein concentration.
(c) Blot of signal over concentration of the titration in (b) to deduce an apparent Kd value. Best fitting was achieved by one site-specific binding model.
(d ) Same analysis as in (b) but with hHP1β I161A.
(e) Blot of signal over concentration of the titration in (d) to deduce an apparent Kd value. […]
(also on this page, place not known: dimer . hHP1 β H3K9me3 - se nsory ( b) site -specific ( b) hHP1 β ( d) site -specific hHP1 β modifi ed H3K9me3 -mononucleosomes H3 -tails -30 -50 -8 -4 200 -10 110 -50 -10 -30 [μM] [μM] -10 190 150 -10 110 200 -10 110 μl/min μl/min μl/min -50 150 response [RU] response [RU] response [RU] response [RU] response [RU] [μM] 10 50 response [RU]40 0 0 [μM] 10 30 50 response [RU] 40 0 0 40 [μM] 10 30 50 response [RU] 140 40 0 120 0 40 response [RU] response [RU] response [RU] Kd Kd μM Kd μM 0.8 0.6 0.4 0.2 0 1 1.0 0.8 0.6 0.4 0.2 0.0 mass fraction)

[2] = tested on: H3K9me3 oligonucleosomes; assay: Chromatin coprecipitation, H3K9me3 oligonucleosomes; assay type: binding, Xenopus laevis; details: 6.7 nM oligonucleosomes, 1 μM protein, 150 mM NaCl, 5 mM MgCl2, 1 h on ice
Experimental: 6.7 nM oligonucleosomes were incubated with 1 μM recombinant protein in 100 μl binding buffer (10 mM triethanolamine (pH 7.5), 150 mM NaCl, 5 mM MgCl2, 0.1 mM EDTA, 0.1% (v/v) Triton-X100) for 1 h on ice. Precipitated chromatin complexes were recovered by centrifugation at 16,100g for 30 min at 4°C. Pellets were washed once with 0.5 ml binding buffer and centrifuged for 15 min at 4 °C. Precipitated material was resuspended in 10 μl 1 × SDS loading buffer and boiled for 5 min before running on SDS–PAGE.
Supplementary Table 1: Summary of conditions used in the different experiments of this study.
experiment result modification template Temp. [NaCl] [MgCl2]
chromatin Fig. 1e,f; Fig. S1f-h; H3K9me3 oligo- 4 150 5

[3] = tested on: H3K9me3 oligonucleosomes; assay: Chromatin sedimentation (clustering), H3K9me3 oligonucleosomes; assay type: biochemical, Xenopus laevis; details: 150 mM NaCl, saturating protein (5 μM) or titration, EtBr fluorescence, n=3
Experimental: Figure 3 hHP1β clusters oligonuclesomal arrays in dependence of H3K9me3. (a) Oligonucleosomes (2.5 nM) were incubated with increasing concentrations of hHP1β WT or I161A at 150 mM NaCl. DNA remaining in the supernatant after centrifugation was incubated with EtBr and measured by fluorescence reading. Data were normalized to amounts in absence of added protein. Averages of three independent experiments are plotted; error bars represent s.d.; n=3. (b) Analysis of the hydrodynamic radius of oligonucleosomes (10 nM; DNA labelled with ATTO 610) in the presence of increasing concentrations of hHP1β WT or I161A by FCS at 150 mM NaCl. For details on experimental setup see Supplementary Fig. 3. Error bars represent s.d.; n=3. (c) Oligonucleosomes were reconstituted after mixing H3K9me0 and H3K9me3 octamers at different ratio. Chromatin precipitation analysis at 150 mM NaCl was carried out with hHP1β WT at saturating concentration. Data are presented as in a. (d) Precipitation behaviour of oligonucleosomes (2.5 nM) was analysed at different concentrations of NaCl with hHP1β WT at saturating concentration. Data are presented as in a. (e) H3K9me3-containing chromatin was reconstituted using wild-type core histones or tailless H2A, H2B or H4. Oligonucleosomes (2.5 nM) were incubated with increasing concentrations of hHP1β WT at 150 mM NaCl. Data are presented as in a. (f) Chromatin coprecipitation of hHP1β with H3K9me3-containing oligonucleosomes reconstituted with wild-type or tailless core histones at the indicated concentrations of MgCl2. Precipitated material was analysed by western blotting. The region of the western blot membrane of the experiment at 7.5 mM MgCl2 containing histones was stained with Ponceau. (g) Oligonucleosomes at 50 mM NaCl were incubated with hHP1β WT or I161A. Complexes were fixed with 0.05% (v/v) glutaraldehyde, spotted on mica surfaces and analysed by scanning force microscopy. Control, no protein added; scale bar, 100 nm. (h) Quantification of results representatively shown in g according to the classification on the top: A, extended; B, partially condensed; C, fully condensed; D; aggregates; n>50 for each condition.
For saturating conditions, 2.7 nM oligonucleosomes were incubated with 5 μM hHP1β proteins in 100 μl sedimentation buffer (10 mM triethanolamine (pH 7.5), 150 mM NaCl, 0.1 mM EDTA) for 1 h on ice. For non-saturating conditions, 3 μM recombinant proteins were used and the NaCl concentration in the sedimentation buffer was lowered to 100 mM. After incubation, 40 μl per sample was placed into a well of a 96-well plate and kept as ‘input'. The rest was centrifuged at 16,100g for 30 min at 4°C. 40 μl supernatant was carefully removed and placed into a 96-well plate (‘output'). For quantification of chromatin DNA, the input and output samples were incubated with 40 μl 0.5 μg ml^−1 ethidium bromide and fluorescence was measured on a Plate CHAMELEON II fluorescence plate reader (Hidex, Turku, Finland) using a 360 nm (±5 nm) excitation filter and a 612 nm (±5 nm) emission filter. For each sample the ratio of DNA concentrations after and before centrifugation (output/input) was calculated.
Supplementary Table 1: Summary of conditions used in the different experiments of this study. experiment result modification template Temp. [NaCl] [MgCl2] […]
chromatin Fig. 1e,f; Fig. S1f-h; H3K9me3 oligo- 4 150 5 coprecipitation Fig. S2b nucleosomes
Fig. S7d,f; Fig.S9c nucleosomes […]
chromatin sedimentation Fig. 4a; H3K9me3 oligo- 4 150 0
(single point) Fig. S3b nucleosomes […]
chromatin sedimentation. oligo-(titration) Fig. 3a H3K9me3 nucleosomes 4 150 0 […]
crosslinking Fig. S6e,f nucleosomes […]
crosslinking Fig. S7a,b nucleosomes
EMSA Fig. 1g; Fig. 5c; n//a RT 100 5
1Preincubation of oligonucleosomes and h HP1β was performed at 4 °C . Measurements wer e carried out at the in dicated te mperature.
2in increments o f 0 .5 mM
3MgCl2 was added at the end of incubation to coprecipitate oligonucleosomes a nd bound hHP1β.

[4] = tested on: mouse fibroblasts; assay: Subnuclear distribution of EGFP fusion proteins; assay type: cell-based; details: GFP fusions transiently expressed, n >100
Source text: Supplementary Figure 11: Subnuclear distribution of hHP1 β wild type and mutant proteins .
(a) The indicated proteins fused to EGFP were transiently expressed in mouse fibroblast cells.
Representative fluorescence confocal images are shown. DNA was stained with DAPI. Scale bar […]
(b) Quantification of the subnuclear distribution of the hHP1β WT and mutant proteins analyzed as in ( a) by visual inspection. EGFP signal in each transfected cell was categoriz ed into ‘dotted’ (see WT distribution in panel a) or ‘diffuse’ (see distribution of I161A in panel a). n >100 for each condition.
(1 picture or pasted object on this page, not shown here)

[5] = tested on: chromatin reporter array in U2OS cells; assay: Chromatin reporter array (LacO) unfolding; assay type: cell-based; details: doxycycline 1 μg ml^−1 24 h, LacI-tethered, n>300
Source text: Figure 7 hHP1β dimerization is required for maintaining condensed cellular chromatin states. (a) Schematic diagram of the transgene system used to test chromatin compaction effects of hHP1β. A tandem array of the construct has been integrated into the genome of U2OS mammalian cells. Dox, doxycycline; rtTA, reverse tetracycline-controlled TET-VP16 transactivator, whose binding to tetracycline responsive elements (RE) is activated by doxycycline. (b) Together with mCherry-LacI, the indicated fusion proteins were transiently expressed in U2OS cells containing the chromatin reporter array as described in a. Representative confocal images in the absence or after induction of transcription from the array with doxycycline (Dox) are shown. DNA was stained with DAPI. Inlets show enlarged chromatin reporter array; scale bar, 10 μm. (c) Quantification of the results shown in b together with results of similar experiments using additional hHP1β mutant proteins. Averages of three independent experiments are plotted; error bars represent s.d.; n>300 for each condition; asterisks represent P<0.05 according to Student's t-test.
U2OS 2-6-3 CLTon cells[38] were kindly provided by Dr Supriya Prasanth (University of Illinois, IL, USA) and maintained in DMEM (high glucose+GlutaMax) (GIBCO/Invitrogen, Darmstadt, Germany) supplemented with 10% (v/v) TET system approved fetal bovine serum (Clontech, Saint-Germain-en-Laye, France), 50 μg ml^−1 hygromycin (Carl Roth, Karlsruhe, Germany) and 200 μg ml^−1 G418 (Clontech, Saint-Germain-en-Laye, France). For fluorescence microscopy, cells were grown on coverslips in a six-well plate without antibiotics. 500 ng plasmid DNA was transfected using Lipofectamine LTX and Plus reagent (Invitrogen, Darmstadt, Germany). 20 h post transfection, cells were treated with 1 μg ml^−1 doxycycline for 24 h for induction of rtTA expression. Cells were washed twice with PBS and fixed with 3.7% (v/v) formaldehyde/PBS for 10 min at RT. […] P values (according to Student's t-test) were calculated using GraphPad QuickCals (GraphPad, CA, USA).

| Substance | competition of residual hHP1β WT SPR signal by free H3 peptide [1] | recovery with H3K9me3 oligonucleosomes [2] | chromatin clustering/aggregation, H3K9me3 [3] | subnuclear distribution [4] | unfolding of the array on activation [5] |
| --- | --- | --- | --- | --- | --- |
| H3K9me0: free unmodified H3 tail peptide used as competitor [reference compound] | competed specifically with free H3K9me3 peptide ligand but not H3K9me0 |  |  |  |  |
| H3K9me3 peptide: free H3K9me3 tail peptide used as competitor [reference compound] | competed specifically |  |  |  |  |
| hHP1β W42A: CD point mutant of hHP1β, abolishing H3K9me3 binding |  | loss of recovery of hHP1β with H3K9me3 oligonucleosomes | failed to cluster oligonucleosomes | diffuse distribution | behaved very similar to the WT protein |
